# Laboratory results taken from the nanobody polyreactivity screen of Harvey et al. (2022).
# Experiment: yeast display, Sf9 membrane polyspecificity reagent, FACS + sequencing; frameworks hold sequencing errors
# In short: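 In a synthetic yeast display library (Saccharomyces cerevisiae BJ5465), nanobody expression was induced with galactose for 36–48 hours. FACS gates were set low and high (top ~1%) using anti-HA fluorescence for expression and streptavidin fluorescence for binding of the Sf9 membrane reagent. Each polyreactivity label is drawn from the gate of origin.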
row,Sequence,polyreactivity (PSR sort gate)
1,QVQLVESGGGLVQAGGSLRLSCAASGSTFYGYTMGWYRRAPGKERELVAAITFRGGSTYYADSVKGRFTISRDNAKNTVYLQMNSLKPEDTAVYYCAAVGRYSRYPYSDTYGYWGQGTQVTVSS,high polyreactivity
2,QVQLVESGGGLVHAGGSLRLSCAASGFTIPYYAMGWYRQAPGKERELVAAIRISGGSTYYADSVKGRFTISRDNAKNTVYLQMNSLKPEDTAVYYCAADYRYRSRFYYWGQGTQVTVSS,low polyreactivity
3,QVQLVESGGGLVQAGGSLRLSCAASGSTFARYAMGWYRQAPGKERELVAAISITGSTYYADSVKGRFTISRDNAKNTVYLQMNSLNPEDTAVYYCNVKSKYRYGYWGQGTQVTVSS,high polyreactivity
4,QVQHVESGGGLVQAGGSLRLSCAASGRTFYRNAMGWYRPAPGKERELVAAISWSGGRTFYADSVKGRFTISRDNAKNTVYLQMNSLKPEDTAVYYCAKTYTTPGYYRYDYWGKGTQVTVSS,high polyreactivity
5,QVQLVESGGGLVQAGGSLRLICAASGRTFVPYAMGWYRQAPGKERELVAAISQSGGRTYYTDSVKGRFTISRDNAKNTVYLQMNSLKPEDTAVYYCAKRYIYRYVWGGGDYWGQGTQVTVSS,high polyreactivity
6,QVQLVESGGGLVQAGGSLRLSCAASGIIFYDYAMGWYRQAPGKERELVAAISSSGGRTYYADSVKGRFTISRDNAKNTVYLQMNSLNPEDTAFYYCATVSSIYRVRSTSIRYNYWGQGTQVTVSS,high polyreactivity
7,QVQLVESGGGLVQAGGSLRLSCAASGSIFGSNAMGWYRQSPGKERELVAAISRSGGSTYYADSVKGRFTISRDNAKNTVYLQMNSLKPEDTAVYYCAVVASRSHTETPEYDFWGQVTQVTVSS,low polyreactivity
8,QVQLVESGGGLVQAGGSLSLSCAASGSIFHPYTMGWYRQAPGKERELVAGISQSSDSTYYADSVKGRFTISRDNAKNTVYLQMNSLKPEDTAVYYCNRDNDWPLSVVEVDYWGQGTQVTVSS,low polyreactivity
9,QVQLVESGGGLVQAGGSLRLICAASGRTFGGNAMGWYRQAPGKEWDLVAAISYSDGSKYYADSVKGRFTISRDNANNSVYLQMNSLKPEDTAVYYCAAARHVRTDYLDYDYWGQGTQVTVSS,low polyreactivity
10,QVQLVESGGGLVQAGGSLRLICAASGGIFVYYAMGWYRQAPGKERELVAAISSGGTTNYADSVKGRFTISRDNAKNTVYLQMNSLKPEDTAVYYCAIYVSWPLYYYWGQCTQVTVSS,low polyreactivity
11,QVQLVESGGGLVQAGGSLRLSCAASGFTFGSYAMGWYRQAPGKEREFVAAIRRSGSSTYYADSVKGRFTISRDNAKNTVYLQMNSLKPEDTAVYYCAADVYRRLRRYRYYYWGQGTQVTVSS,low polyreactivity
12,QVQLVESGGGLVQAGGSLRLSCAASGRTFIINTMGWSRQATGTERELVAAISKNGATTNYADSVKGRFTISRDNAKNTVYLQMNSLKPEDTAVYYCNARYSGYLRLDYWGQGTQVTVSS,low polyreactivity
13,QVQLVESGGGLVQAGGSLRLSCAASGLIFQVYTMGWYRQAPGKERELVAAISWDAGSTYYADSVKGRFTISRDNAKNTVYLQMNSLKPEDTAVYYCAAKRKIRGYGPYEYWGQGTQVTVSS,high polyreactivity
14,QVQLVESWGGLVQAGGSLRLSCAASGITFYVYAMGWYRQAPGKERELVAAISSGSSTYYADSVKGRFTISRDNAKKTVYLQMNSLKPEDTAVYYCAARYRKYLSEYWGQGTQVTVSS,high polyreactivity
15,QVQLVESGGGLVQAGGSLRLSCAASGRIFSKYAMGWYRQAPGKEREFVASISYRGGSTYYADSVKGRFTISRDNAKNTVYLQMNSLKPEDTAVYYCATRKYADRESDYWGQGTQVTVSS,high polyreactivity
16,QVQLVESGGGLEQAGGSLRLSCAASGRTFYYYAMGWYRQAPGKERELVAAIRWRGGRTYADSVKGRFTISRDNAKNTVYLQMKSLKPEDTAVYYCAVDSFYRHASLYDYWGQGTQVTVSS,high polyreactivity
17,QVQLVESGGGLVQAGGRLRLSCAASGFTFYRYAMGWYRQAPGKERELVAAITDSGDSTYYADSVKGRFTISRDNAKNTVYLQMNSVKPEDTAVYYCNTLVDLDGFEYYYWGQGTQVTVSS,high polyreactivity
18,QVQLVESGGGVVQAGGSLRLSCAASGSTLVVNGLGWYRQAPGKDRELVAAISWSGGTTYYADSVKGRFTISRDNAKNTVDLQMNSLKPEDTAVYYCAADSYTEVDYWGQGTQVTVSS,low polyreactivity
19,QVQLVESGGGLVQAGGSLRLSCAASGLTLRYYVMGWYRQAPGKERELVASITRSGGSTSYADSVKGRFTISRDNAKNTVYLQMNSLQPEDTAVYYCNRRTYVGTRASFLYYYWGQGTQVTVSA,high polyreactivity
20,QVQLVESGGGLVQAGGSLRLSCDASGRTFPEYGMGWYRQAPGKEREFVAAISTRGGSTYYANSVKGRFTISRDNAKNTVYLQMNSLKPEDTAVYYCAAKYPGGETYPFDYWGQGTQVTVSS,low polyreactivity
21,QVQLVESGGGLVQAGGSLRLSCAASGRIIYPNTMGWYRQAPGKERELVAAINRLGGSTYYADSVKGRFTISRDYAKNTVYLQMNSLIPEDTAVYYCAAYTTWTRSGYYDFTSYFWGQGTQVTVSS,high polyreactivity
22,RVQLVESGGGLVQAGGSLRLSCAASGITFGRNAMGWYRQAPGKERELVAAISRGGSTNYADSVKGRFTISRDNAKNTVYLQMNSLKPEDTAVYYCNARSFGPTESRYDYWGQGTQVTVSS,high polyreactivity

row,Sequence,polyreactivity (PSR sort gate)
1,QVQLVESGGGLVQAGGSLRLSCAASGGTFYANAMGWSRQAPGKEREFVASISRSVGSTYYADSVKGRFTISRDNAKNTVYLQMNSLKPEDTAVYYCAARRYSRPRYTYYSWGQGTQVTVSS,high polyreactivity
2,QVQLVESGGGLVQAGGSLRLSCAASGLTFKYYAMGWYRQAPGKERELVAAITSTGGRTYYADSVKGRFTISRDNAKNTVYLQMNSLKPEDTAVYYCAKDTHWAYYWGQGTQVTVSS,low polyreactivity
3,QVQLVDSGGGLVQAGGSLRLSCAASGRIFRDNCMVCYRQAPGKERELVAAIRRSGGSTYYADSVKGRFTISRDNAKNSVYLQMNSLIPEDTAVYYCATPPYPGREYWGQGSQVTVSS,high polyreactivity
4,QVQLVESGGGKVQAGGSLRLSCAASGRTFWVYAMGWYRPAPGKERELVASISWSVGSTYYADSVKGRFTISRDNAKNTVYLQMNSLKPEDTAVYYCAADPSPYGDEYDYWGQGTQVTVSS,low polyreactivity
5,QVQLVDSAAALVQAGGSQRLTCAASGLIFYYSVMGSYRQAPGKERELVARISTSGGSTYYADSVKGRFTISRDNAKNTVYIQMNSLKPEDTAVYYCAARGYRQYGWDCYCGQGTQVTVSS,low polyreactivity
6,QVQLVESGGGLVQAGGSLRFSCAASGFIFRDNAMVWYRRAPGKERELVAAISYSGGSTYYADSVKGRFTISRDNAKNTVYLQMNSVKPEDTAVYYCAASYGPKRRGYWGQGTQVTVSS,high polyreactivity
7,QVQLVESGGGLVQAGGSLRLSCAASGSIFDDYAMGWYRQAPGKESELVAAITSGASTNYADSVKGRFTISRDNAKNTFSLQMNSLKPEDTAVYYCAADHDYFVNTDKFDDYWGQGTQVTVSS,low polyreactivity
8,QDQLVESAGGLVQAGGSLRLSCAASGFTFINNDMGWYRQAPGKERELVAAISDSDGTTYYADSVKGRFTISLDHAKNTVYLQMNSLKPEDTAGYYCAADVVPTWEDEYWRQGTQVTVSS,low polyreactivity
9,QVQLEESGGGLLQAGGSLRLSCAASGRTLGGYTMGWYRPAPGKERELVSAITTGGSTNYADSVKGRFTISRDNAKNTVYLQMNSLKPEDTAVYFCATELVFDKRYWYDYWGQGSQVTVSS,low polyreactivity
10,QVQLVESGGGLVQAGGSLRLICAASGSIFRYYAMGWYRQAPGKERELVADINGSGGSTYYADSVKGRFTISRDNAKNTVYLQMNSLKPEDTAVYYCATAYGWRRKYYGYDYCGQGTQVTVSS,high polyreactivity
11,QVQLVESGGGLVQAGGSLRLSCAASGITFRTYAMGWYRQALGKERELVAVITWSGGRTYYADSVKGRFTISRDNANNTVYLQMHSLKPEDTAVYYCNALAYYIRYYYWGQGTQVTVSS,high polyreactivity
12,QIQLEESGGGLVQAGGSLRLSCAASGSIFDYNTMGWYSQAPGKERELVAAISSSGGSTYYADSVKGRFTISRDNAKNSVYLQMNSLKPEDTAVYYCAAVNGYQYPPYYFNGYDYWGQGTQVTVSS,low polyreactivity
13,QVQLVESGGGLVQAGGSLRLSCAASGSTITRYAMGWYRQAPGKERELVAVISRSGGSTYYADSVKGRFTISRDNAKNTVYLQMNSLKPEDTAVYYCAAKYYGGRRSPYSYGYWGQGTQVTVSS,high polyreactivity
14,QVQLVESGGGLVQAGGSLRLSCAASGFTFSYYAMGWYRQAPGKERELVAAISWSGGRTYYADSVKGRFTISRDNAKNTVYLQMNSLKPEDTAVYYCAVVYYGSIFVLEYDYWGQGTQVTVSS,high polyreactivity
15,QVQLVESGGGLVQAGGSLRLSCAASGFIFRWYAMGWYRQAPGKERELVAGISASGGSTYYADSVKGRFTISRDNAKNTVYLQMNSLKPEDTAVYYCAAYRRNSRWELDYWGQGTQVTVSS,high polyreactivity
16,QVQLVESGGGLVQAGGSLRLSCAASGRTLGRNAMGWYRQAPGKERELVASISSGGSTNYADSVKGRFTISRDNAKNTVYLQMNSLKPEDTAVYYCAAGYFRDYWGQGTQVTVSS,high polyreactivity
17,QVQLVESGGGLVQAGGSLRLSCAASGSTFVRNAMGWYRQATGKERELVAAITTSGARTYYADSVKGRFTISRDNAKNTVYLQMNSLKPEDTAVYYCAAEYKGRTYRFDYWGQGTQVTVSS,low polyreactivity
18,QVQLVQSGGGLVQAGGSLSLSCAASGRIFGINAMGWYRQAPGKESELVAAISSGGSTYYADSVKGRFTISLDNAKNTVYLQMNSLKPEDTAVYYCAADYDSYVSHDRGVWRDYWGQGTQVTVSS,low polyreactivity
19,HVHLQESGGGLVQAGGSLRLSCAASGSINDETYMAWYRQAPGKERELVATIDSGSTTNYADSVKGRITISRDNAKNTVYLQMNSLKPEDTAVYYCAAADSHIDYFDYWGQGSQVTVSS,low polyreactivity
20,QVQLVESGGGLVQAGGSLRLSCAASGSIYVNKAMGWYRQAPGKERELVAAISRSGTRTYYADSVKGRFTISRDNAKNTVYLQMNSLKPEDTAVYYCAVDYYYRMDYWGQGTQVTVSS,high polyreactivity
21,QVQVVESGGGLVQAGGSLRLSCAASGSTFWWYAMGWYRQAPGKERELVAAITSGGSTNYADSVKGRFTISRDNAKNTVYLQMNSLKPEVTAFYYCAKVPRPLVYYIRLGYWGQGTQVTVSS,high polyreactivity
